Measured values taken from US20140205611A1.

What was measured:
Experiment in all cases: cell-based or functional assay
[1] = target: recombinant hGM-CSF derived from yeast (Leukine, Berlex) (human) (UniProt P04141)
[2] = target: recombinant hGM-CSF from E. coli (Peprotech) (human) (UniProt P04141)
[3] = target: recombinant hGM-CSF expressed in E. coli (Fa. Biomol #2514) (human) (UniProt P04141)
Chain of recombinant hGM-CSF expressed in E. coli (Fa. Biomol #2514) (human) (P04141 18-144 limits assumed): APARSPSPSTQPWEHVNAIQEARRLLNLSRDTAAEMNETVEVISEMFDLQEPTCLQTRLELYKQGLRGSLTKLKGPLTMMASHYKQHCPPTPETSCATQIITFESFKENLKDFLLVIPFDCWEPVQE

Chain of recombinant hGM-CSF from E. coli (Peprotech) (human) (P04141 18-144 limits assumed): as above
Chain of recombinant hGM-CSF derived from yeast (Leukine, Berlex) (human) (P04141 other isoform, or with tags, fused parts or gaps limits assumed, form in doubt): as the sequence (P04141 18-144 limits assumed) above, with R23L counted along it

Substance	TF-1 cell proliferation with 0.5 ng/mL rhGM-CSF (WST-1 assay) [1]	TF-1 cell proliferation with 0.5 ng/mL rhGM-CSF (WST-1 assay) [2]	IC50 in TF-1 assay, hGM-CSF (E. coli) at 1.0 ng/ml final concentration [3]
human anti-human cytomegalovirus monoclonal antibody (hIgG)	< 2 µg/mL	< 2 µg/mL	
rat-anti-human-GM-CSF IgG2a BVD2-21C11 (Fa. BD, #554503) (antibody)			8.26 nM
